# Experimental data from the RNAGym collection of RNA variant scans (doi:10.1093/molbev/msab373).
# B1: Azoarcus group I ribozyme (parent)
# chain: GUGCCUUGCGCCGGGAAACCACGCAAGGGAUGGUGUCAAAUUCGGCGAAACCUAAGCGCCCGCCCGGGCGUAUGGCAACGCCGAGCCAAGCUUCGGCGCCUGCGCCGAUGAAGGUGUAGAGACUAGACGGCACCCACCUAAGGCAAACGCUAUGGUGAAGGCAUAGUCCAGGGAGUGGCGAAAGUCACACAAACCGG
# Variants of: B1
# Assay: reverse-splicing fitness (ratio to wild type); higher = more active; in vitro selection; Mg2+ level not given
# How it was run: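 An in vitro group I ribozyme library with randomized positions was T7-transcribed and gel-purified. In triplicate, 10 pmol RNA in EPPS pH 7.5 was reacted with 50 pmoles of a 30-nt RNA substrate for 1 h at 37 °C across several added MgCl2 levels (1–48 mM), then stopped with EDTA. Products were reverse transcribed from a substrate-complementary primer, PCR-amplified and sequenced (HiSeq 4000). Fitness is a variant's read proportion after selection over that before, normalised to wild type.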
row,Variant,reverse-splicing fitness
1,C82G A111G A120U A145U C169U U176A,0.00226
2,C82G A111G A120G C169U U176G,0.00595
3,C82G A111G A120G C169U U176A,0.0199
4,C82G A111G A120G C169U U176C,0.0198
5,C82G A111G A120U A145C C150U C169U,0.00328
6,C82G A111G A120U A145C C150U C169G,0.00281
7,C82G A111G A120U A145C C150U C169A,0.00231
8,C82G A111G A120U A145C C150U,0.0153
9,C82G A111G A120U A145C C150G,0.00878
10,C82G A111G A120U A145C C150A,0.00572
11,C82G A111G A145C C150A C169A U176G,0.00663
12,C82G A111G A145C C150A C169A U176A,0.0136
13,C82G A111G A145C C150A C169A U176C,0.00683
14,C82G A111G A145C C169A,0.00733
15,C82G A111G A145C C169G,0.00994
16,C82G A111G A145C C169U,0.0132
17,C82G A111G A120U A145U C150U C169U U176G,0.00196
18,C82G A111G A120U A145U C150U C169U U176C,0.00263
19,C82G A111G A120U A145U C150U C169U U176A,0.00291
20,C82G A111G A120U C150G C169G U176G,0.00263
21,C82G A111G A120U C150G C169G U176C,0.00486

row,Variant,reverse-splicing fitness
1,C82G A111G A120U C150G C169G U176A,0.00638
2,C82G A111G A120U A145U C169G U176C,0.00235
3,C82G A111G A120U A145U C169G U176G,0.00156
4,C82G A111G A120U A145U C169G U176A,0.0022
5,C82G A111G A120U A145G C150A C169G U176A,0.0128
6,C82G A111G A120U A145G C150A C169G U176G,0.00219
7,C82G A111G A120U A145G C150A C169G U176C,0.00625
8,C82G A111G A120U A145C C150U U176G,0.00303
9,C82G A111G A120U A145C C150U U176C,0.00541
10,C82G A111G A120U A145C C150U U176A,0.00647
11,C82G A111G A120U A145C C150U C169U U176C,0.00268
12,C82G A111G A120U A145C C150U C169U U176G,0.00214
13,C82G A111G A120U A145C C150U C169U U176A,0.00258
14,C82G A111G A145C C150G U176C,0.0294
15,C82G A111G A145C C150G U176G,0.00683
16,C82G A111G A145C C150G U176A,0.0197
17,C82G A111G A145C C150A C169U U176A,0.0123
18,C82G A111G A145C C150A C169U U176C,0.00961
19,C82G A111G A145C C150A C169U U176G,0.00582
20,C82G A111G A145G C150A C169A U176C,0.0222
21,C82G A111G A145G C150A C169A U176A,0.0234

row,Variant,reverse-splicing fitness
1,C82G A111G A120U A145G C150G U176G,0.00375
2,C82G A111G A120U A145G C150G U176A,0.00561
3,C82G A111G A120U A145G C150G U176C,0.00834
4,C82G A111G A120U A145C U176G,0.0054
5,C82G A111G A120U A145C U176C,0.0205
6,C82G A111G A120U A145C U176A,0.0131
7,C82G A111G A120U A145G C150A C169U,0.00426
8,C82G A111G A120U A145G C150A C169G,0.00639
9,C82G A111G A120U A145G C150A C169A,0.00593
10,C82G A111G A120U A145U C150U C169A U176A,0.00294
11,C82G A111G A120U A145U C150U C169A U176C,0.00239
12,C82G A111G A120U A145U C150U C169A U176G,0.00186
13,C82G A111G A120U A145C C150A C169G,0.00251
14,C82G A111G A120U A145C C150A C169A,0.00228
15,C82G A111G A120U A145C C150A C169U,0.00246
16,C82G A111G A120U A145C C150U C169G U176G,0.00185
17,C82G A111G A120U A145C C150U C169G U176C,0.0031
18,C82G A111G A120U A145C C150U C169G U176A,0.00296
19,C82G A111G A145C C150U C169A U176G,0.00694
20,C82G A111G A145C C150U C169A U176A,0.0123
21,C82G A111G A145C C150U C169A U176C,0.00686

row,Variant,reverse-splicing fitness
1,C82G A111G A120U U176A,0.018
2,C82G A111G A120U U176G,0.00562
3,C82G A111G A120U U176C,0.0294
4,C82G A111G A120U A145G C150U C169U,0.00611
5,C82G A111G A120U A145G C150U C169G,0.00707
6,C82G A111G A120U A145G C150U C169A,0.00681
7,C82G A111G A120U A145G C150A C169A U176G,0.00251
8,C82G A111G A120U A145G C150A C169A U176C,0.00503
9,C82G A111G A120U A145G C150A C169A U176A,0.00843
10,C82G A111G A120U A145U U176A,0.0168
11,C82G A111G A120U A145U U176G,0.00582
12,C82G A111G A120U A145U U176C,0.0296
13,C82G A111G A120U C150G U176G,0.00299
14,C82G A111G A120U C150G U176C,0.00821
15,C82G A111G A120U C150G U176A,0.00529
16,C82G A111G A120U C150A C169U U176A,0.00523
17,C82G A111G A120U C150A C169U U176G,0.00229
18,C82G A111G A120U C150A C169U U176C,0.00456
19,C82G A111G A145C C150U C169G U176G,0.00619
20,C82G A111G A145C C150U C169G U176A,0.0203
21,C82G A111G A145C C150U C169G U176C,0.0114
